This data set deals with Escherichia coli TOP10. As to the kind of experiment: shrunken log2 fold change of peptide-encoding DNA abundance (4.5 h post-induction vs induction); higher = less antimicrobial activity (less host growth inhibition). The note with it: time post-induction: 4.5 h; library: site-saturation at positions 5, 18, 19, 20.
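Also: peptides expressed intracellularly from a pBAD plasmid library in pooled LB shake-flask culture, induced with 0.3% L-arabinose, DNA abundance read by NGS, three biological replicates, DESeq2 with apeglm shrinkage.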

Regarding RRIRGRPPRLPRPRPRPMASPRP, the “shrunken log2 fold change” value is 0.176. For RRIRGRPPRLPRPRPRPLHDPRP, the “shrunken log2 fold change” value was found to be 0.748. Take RRIRGRPPRLPRPRPRPDDWPRP: the “shrunken log2 fold change” value was 1.5.

Turning to RRIRKRPPRLPRPRPRPEWTPRP, the “shrunken log2 fold change” value is 0.0364. The result for RRIRQRPPRLPRPRPRPSKHPRP reads -0.641. RRIRERPPRLPRPRPRPISCPRP: the “shrunken log2 fold change” value was -0.705. As for RRIRYRPPRLPRPRPRPYPSPRP, the figure is -0.248; as for RRIRERPPRLPRPRPRPQNHPRP, -0.519; as for RRIRLRPPRLPRPRPRPGFWPRP, 0.406. The result for RRIRCRPPRLPRPRPRPDPTPRP reads 0.0668; that for RRIRYRPPRLPRPRPRPMSQPRP, -0.0802; that for RRIRMRPPRLPRPRPRPFIHPRP, -0.57. As for RRIRTRPPRLPRPRPRPHNCPRP, the figure is -0.113; as for RRIRKRPPRLPRPRPRPMEYPRP, -0.00192. Consider RRIRFRPPRLPRPRPRPIVIPRP, for which the “shrunken log2 fold change” value is -0.205. The result for RRIRYRPPRLPRPRPRPRRYPRP reads -0.492.

Consider RRIRGRPPRLPRPRPRPLVAPRP, for which the “shrunken log2 fold change” value was found to be 1.16.

RRIRDRPPRLPRPRPRPISHPRP: the “shrunken log2 fold change” value amounted to 0.0261.

With RRIRRRPPRLPRPRPRPKPMPRP, the “shrunken log2 fold change” value stood at 0.687. As for RRIRGRPPRLPRPRPRPKIQPRP, the figure is 0.369. In the case of RRIRVRPPRLPRPRPRPVITPRP, the “shrunken log2 fold change” value is -0.207.

For the sequence RRIRARPPRLPRPRPRPHAKPRP, the “shrunken log2 fold change” value was -0.0556. On to RRIRSRPPRLPRPRPRPEWAPRP, for which the “shrunken log2 fold change” value turned out to be 0.273. For the sequence RRIRTRPPRLPRPRPRPLWYPRP, the “shrunken log2 fold change” value is -0.245. As for RRIRKRPPRLPRPRPRPVCRPRP, the figure is 0.245; as for RRIRLRPPRLPRPRPRPMIVPRP, -0.199; as for RRIRYRPPRLPRPRPRPNPQPRP, -0.0909. As for RRIRPRPPRLPRPRPRPLQRPRP, the figure is 0.395; as for RRIRLRPPRLPRPRPRPNFWPRP, 0.199; as for RRIRIRPPRLPRPRPRPAKSPRP, -0.0109. As for RRIRNRPPRLPRPRPRPGYDPRP, the “shrunken log2 fold change” value worked out at 0.166. Regarding RRIRGRPPRLPRPRPRPWLSPRP, the “shrunken log2 fold change” value is -0.0504. The result for RRIRVRPPRLPRPRPRPCIRPRP reads -0.198; that for RRIRIRPPRLPRPRPRPIFIPRP, -0.317; that for RRIRTRPPRLPRPRPRPTVMPRP, -0.152. The result for RRIRWRPPRLPRPRPRPGMDPRP reads 0.317. The result for RRIRARPPRLPRPRPRPHMNPRP reads -0.245. Regarding RRIRMRPPRLPRPRPRPVAFPRP, the “shrunken log2 fold change” value came out at 0.579. As for RRIRPRPPRLPRPRPRPHHRPRP, the figure is -0.118; as for RRIRQRPPRLPRPRPRPVSEPRP, -0.202. For the sequence RRIRCRPPRLPRPRPRPYGNPRP, the “shrunken log2 fold change” value is -0.277.

Turning to RRIRPRPPRLPRPRPRPRLWPRP, the “shrunken log2 fold change” value was 0.917.

With RRIRCRPPRLPRPRPRPDFHPRP, the “shrunken log2 fold change” value is -0.685. RRIRCRPPRLPRPRPRPQKFPRP: the “shrunken log2 fold change” value is -0.638. As for RRIRVRPPRLPRPRPRPEYQPRP, the figure is -0.235; as for RRIRNRPPRLPRPRPRPPGWPRP, 1.24. As for RRIRLRPPRLPRPRPRPDSLPRP, the “shrunken log2 fold change” value was -0.335. For RRIRWRPPRLPRPRPRPKAPPRP, the “shrunken log2 fold change” value was determined as 0.378. Consider RRIRRRPPRLPRPRPRPLAAPRP, for which the “shrunken log2 fold change” value amounted to 0.874. The result for RRIRKRPPRLPRPRPRPADDPRP reads 0.799; that for RRIRCRPPRLPRPRPRPEVEPRP, 0.254. Turning to RRIRWRPPRLPRPRPRPAQKPRP, the “shrunken log2 fold change” value was found to be 0.157. The result for RRIRSRPPRLPRPRPRPPGHPRP reads 0.167.

As to RRIRDRPPRLPRPRPRPISDPRP, the “shrunken log2 fold change” value is 0.0148. Regarding RRIRMRPPRLPRPRPRPHLCPRP, the “shrunken log2 fold change” value was -0.117. Consider RRIRLRPPRLPRPRPRPMEGPRP, for which the “shrunken log2 fold change” value was 0.0303. As for RRIRFRPPRLPRPRPRPIFEPRP, the figure is -0.0328; as for RRIRHRPPRLPRPRPRPSHVPRP, -0.166. Regarding RRIRWRPPRLPRPRPRPHAWPRP, the “shrunken log2 fold change” value amounted to 0.0328.

For RRIRMRPPRLPRPRPRPCGGPRP, the “shrunken log2 fold change” value is 1.19. As for RRIRKRPPRLPRPRPRPQFKPRP, the “shrunken log2 fold change” value is -0.037. On to RRIRMRPPRLPRPRPRPSLMPRP, for which the “shrunken log2 fold change” value amounted to 0.428.

In the case of RRIRSRPPRLPRPRPRPFADPRP, the “shrunken log2 fold change” value is -0.0303. The result for RRIRHRPPRLPRPRPRPNFQPRP reads -0.161; that for RRIRRRPPRLPRPRPRPQRTPRP, 0.152; that for RRIRMRPPRLPRPRPRPTTAPRP, 1.19.

RRIRERPPRLPRPRPRPGTKPRP: the “shrunken log2 fold change” value was -0.0636. Consider RRIRRRPPRLPRPRPRPGVEPRP, for which the “shrunken log2 fold change” value came to 0.99. As for RRIRWRPPRLPRPRPRPDDEPRP, the figure is 0.606.

Regarding RRIRGRPPRLPRPRPRPYYMPRP, the “shrunken log2 fold change” value is -0.238. Turning to RRIRMRPPRLPRPRPRPFAQPRP, the “shrunken log2 fold change” value turned out to be 0.0306.

Consider RRIRVRPPRLPRPRPRPDWVPRP, for which the “shrunken log2 fold change” value was -0.0925. For RRIRLRPPRLPRPRPRPGYNPRP, the “shrunken log2 fold change” value was -0.774. The result for RRIRWRPPRLPRPRPRPGPWPRP reads 0.318; that for RRIRLRPPRLPRPRPRPACLPRP, 0.00436. For RRIRWRPPRLPRPRPRPPWSPRP, the “shrunken log2 fold change” value is 0.378. As for RRIRKRPPRLPRPRPRPRFGPRP, the “shrunken log2 fold change” value worked out at 0.217.

As for RRIRYRPPRLPRPRPRPIYTPRP, the “shrunken log2 fold change” value was -0.943. The result for RRIRPRPPRLPRPRPRPEDTPRP reads 0.174. Take RRIRDRPPRLPRPRPRPRTFPRP: the “shrunken log2 fold change” value was -0.0632. As for RRIRMRPPRLPRPRPRPWKCPRP, the figure is -0.174. As to RRIRQRPPRLPRPRPRPNEYPRP, the “shrunken log2 fold change” value is -1.18. Turning to RRIRDRPPRLPRPRPRPVTAPRP, the “shrunken log2 fold change” value was found to be 0.157. The result for RRIRCRPPRLPRPRPRPGICPRP reads -0.0835; that for RRIRKRPPRLPRPRPRPTLWPRP, 1.19; that for RRIRRRPPRLPRPRPRPMSIPRP, -0.465.

Take RRIRDRPPRLPRPRPRPRKPPRP: the “shrunken log2 fold change” value came to 0.39. With RRIRKRPPRLPRPRPRPETQPRP, the “shrunken log2 fold change” value was -0.119. The result for RRIRIRPPRLPRPRPRPWYEPRP reads -0.0153. The result for RRIRQRPPRLPRPRPRPDTRPRP reads 0.00157. The result for RRIRARPPRLPRPRPRPDKIPRP reads 0.299. Regarding RRIRTRPPRLPRPRPRPRDEPRP, the “shrunken log2 fold change” value was found to be 0.146. The result for RRIRIRPPRLPRPRPRPDWIPRP reads -1.16; that for RRIRKRPPRLPRPRPRPTASPRP, 0.783.

As to RRIRLRPPRLPRPRPRPYCWPRP, the “shrunken log2 fold change” value was -0.37. Take RRIRSRPPRLPRPRPRPVMWPRP: the “shrunken log2 fold change” value worked out at 0.459. As for RRIRDRPPRLPRPRPRPRAPPRP, the figure is 0.359; as for RRIRERPPRLPRPRPRPYQEPRP, -0.255.

For the sequence RRIRHRPPRLPRPRPRPYMQPRP, the “shrunken log2 fold change” value is -0.476. Turning to RRIRQRPPRLPRPRPRPAALPRP, the “shrunken log2 fold change” value worked out at 0.247. The result for RRIRPRPPRLPRPRPRPDGWPRP reads 0.354. The result for RRIRYRPPRLPRPRPRPAVQPRP reads -0.505; that for RRIRDRPPRLPRPRPRPTKCPRP, -0.0929; that for RRIRFRPPRLPRPRPRPFYCPRP, -0.781. As for RRIRQRPPRLPRPRPRPNPTPRP, the figure is 0.00513; as for RRIRPRPPRLPRPRPRPFWVPRP, 0.0111; as for RRIRGRPPRLPRPRPRPRLEPRP, 1.16. Regarding RRIRPRPPRLPRPRPRPGCVPRP, the “shrunken log2 fold change” value came to 0.447. Regarding RRIRNRPPRLPRPRPRPGIGPRP, the “shrunken log2 fold change” value was 0.239. As for RRIRYRPPRLPRPRPRPCRYPRP, the figure is -0.212.

Regarding RRIRYRPPRLPRPRPRPRGEPRP, the “shrunken log2 fold change” value is -0.101. Regarding RRIRLRPPRLPRPRPRPDRGPRP, the “shrunken log2 fold change” value turned out to be 0.0151. RRIRLRPPRLPRPRPRPDSHPRP: the “shrunken log2 fold change” value was -0.46. The result for RRIRSRPPRLPRPRPRPQTYPRP reads -0.16; that for RRIRNRPPRLPRPRPRPDCDPRP, -0.132; that for RRIRHRPPRLPRPRPRPWRLPRP, -0.0125.

Regarding RRIRTRPPRLPRPRPRPELHPRP, the “shrunken log2 fold change” value is 0.396. On to RRIRPRPPRLPRPRPRPELHPRP, for which the “shrunken log2 fold change” value worked out at 0.0832. Consider RRIRTRPPRLPRPRPRPSCYPRP, for which the “shrunken log2 fold change” value was -0.654. As for RRIRVRPPRLPRPRPRPYQHPRP, the figure is -0.301; as for RRIRMRPPRLPRPRPRPSIGPRP, -0.00737. For RRIRYRPPRLPRPRPRPSVSPRP, the “shrunken log2 fold change” value is -0.747. For the sequence RRIRTRPPRLPRPRPRPMIGPRP, the “shrunken log2 fold change” value is -0.107. As for RRIRDRPPRLPRPRPRPCIDPRP, the figure is 0.0188; as for RRIRLRPPRLPRPRPRPMGTPRP, -0.0465.

The record behind these values is the supplement of paper PMC9112550, “Optimization of the antimicrobial peptide Bac7 by deep mutational scanning” (BMC Biology, 2022).
